± gives the uncertainty stated by the source.
Experiment: self-splicing fitness, log relative to wild type (ln ratio); higher = more splicing; Tetrahymena group I intron in knt gene, E. coli kanamycin selection, DiMSum; sequences stand for … in CUCUCU…GGAGGGAAAAGUUAUCAGGCAUGCACCUGGUAGCUAGUCUUUAAACCAAUAGAUUGCAUCGGUUUAAAAGGCAAGACCGUCAAAUUGCGGGAAAGGGGUCAACAGCCGUUCAGUACCAAGUCUCAGGGGAAACUUUGAGAUGGCCUUGCAAAGGGUAUGGUAAUAAGCUGACGGACAUGGUCCUAACCACGCAGCCAAGUCCUAAGUCAACAGAUCUUCUGUUGAUAUGGAUGCAGUUCACAGACUAAAUGUCGGUCGGGGAAGAUGUAUUCUUCUCAUAAGAUAUAGUCGGACCUCUCCUUAAUGGGAGCUAGCGGAUGAAGUGAUGCAACACUGGAGCCGCUGGGAACUAAUUUGUAUGCGAAAGUAUAUUGAUUAGUUUUGGAGUACUCGUGGUCG
Outline: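 Six replicate transformations of E. coli BL21(DE3) with a pET-22b(+) library were grown overnight at 37°C or 30°C. The library randomised all eight P1ex-region intron nucleotides, the intron lying in the knt kanamycin-resistance gene, and plates were LB agar with or without 25 μg/mL kanamycin plus 100 μg/mL carbenicillin, 50 μM IPTG and 0.2% rhamnose. Pooled colonies were amplicon-sequenced on an Illumina HiSeq 2500, and fitness is the DiMSum error-weighted combination of wild-type-normalised replicate fold changes, kanamycin versus none.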

| Sequence | self-splicing fitness (ln) (30 °C) | self-splicing fitness (ln) (37 °C) |
| --- | --- | --- |
| GGGAAGCAAUAUUACGAUCA | -0.768 ± 0.33 | -0.0795 ± 0.35 |
| UCCCAGCAAUAUUACGUUGA | -1.26 ± 0.066 | 0.408 ± 0.075 |
| UAACAGCAAUAUUACGCUAA | -1.93 ± 0.13 | -1.25 ± 0.12 |
| CCCAAGCAAUAUUACGCUCG | -3.17 ± 0.2 | -2.14 ± 0.33 |
| AUUGAGCAAUAUUACGGGCC | -2.96 ± 0.36 | -2.05 ± 0.43 |
| AAUAAGCAAUAUUACGCAUG | -1.16 ± 0.13 | -0.645 ± 0.12 |
| UGGCAGCAAUAUUACGUGGA | -2.38 ± 0.17 | -1.02 ± 0.13 |
| GGGUAGCAAUAUUACGCCAA | -0.499 ± 0.16 | -0.0896 ± 0.15 |
| AAUCAGCAAUAUUACGUUAU | -0.401 ± 0.041 | 0.272 ± 0.062 |
| UGCAAGCAAUAUUACGUAUC | -3.22 ± 0.2 | -1.14 ± 0.15 |
| ACCGAGCAAUAUUACGGGUC | -4.23 ± 0.14 | -3.06 ± 0.14 |
| CUAUAGCAAUAUUACGGAAG | -1.87 ± 0.12 | -0.957 ± 0.13 |
| AUAGAGCAAUAUUACGGAAC | -3.66 ± 0.27 | -1.92 ± 0.24 |
| UAUCAGCAAUAUUACGUAAU | -1.62 ± 0.073 | -0.784 ± 0.077 |
| GCUCAGCAAUAUUACGCUAU | -1.61 ± 0.11 | -0.658 ± 0.097 |
| CUCCAGCAAUAUUACGGGGA | -3.46 ± 0.18 | -0.678 ± 0.1 |
| AGAUAGCAAUAUUACGACGC | -0.572 ± 0.16 | 0.997 ± 0.22 |
| UGCAAGCAAUAUUACGCGAC | -3.46 ± 0.19 | -2.65 ± 0.23 |
| UCCCAGCAAUAUUACGCCGA | -0.426 ± 0.1 | 0.659 ± 0.13 |
| UUACAGCAAUAUUACGCAGG | -1.79 ± 0.14 | -1.44 ± 0.14 |
| ACCUAGCAAUAUUACGGGGA | -1.11 ± 0.08 | -0.794 ± 0.096 |
| CGUGAGCAAUAUUACGUCAG | -1.86 ± 0.16 | -0.364 ± 0.15 |
| CACUAGCAAUAUUACGUCUA | -2.25 ± 0.23 | -2.52 ± 0.29 |
| CAAGAGCAAUAUUACGCCAC | -2.38 ± 0.36 | – |
| UCUAAGCAAUAUUACGGAUU | – | -2.31 ± 0.23 |
| CCCAAGCAAUAUUACGUAGC | -2.5 ± 0.42 | -2.74 ± 0.39 |

| Sequence | self-splicing fitness (ln) (30 °C) | self-splicing fitness (ln) (37 °C) |
| --- | --- | --- |
| AACCAGCAAUAUUACGUUGU | -2.68 ± 0.077 | -2.38 ± 0.1 |
| GCUCAGCAAUAUUACGUAAA | -0.495 ± 0.064 | 0.264 ± 0.086 |
| GUAGAGCAAUAUUACGACCC | 0.536 ± 0.15 | 0.745 ± 0.18 |
| UGGGAGCAAUAUUACGCAAA | – | -2.43 ± 0.45 |
| UCGGAGCAAUAUUACGUGCG | -2.06 ± 0.093 | -1.32 ± 0.11 |
| AGGGAGCAAUAUUACGACGC | – | -1.54 ± 0.45 |
| CAGUAGCAAUAUUACGCUUC | -3.45 ± 0.3 | -2.74 ± 0.28 |
| AAAGAGCAAUAUUACGUUGA | -2.75 ± 0.21 | -2.28 ± 0.26 |
| ACAGAGCAAUAUUACGCGAU | -3.54 ± 0.24 | -3.29 ± 0.3 |
| UGGAAGCAAUAUUACGAACG | -0.465 ± 0.24 | -0.592 ± 0.32 |
| AAGUAGCAAUAUUACGACAG | -2.86 ± 0.18 | -1.66 ± 0.21 |
| CUAUAGCAAUAUUACGUGGG | -3.25 ± 0.19 | -2.16 ± 0.15 |
| GUAUAGCAAUAUUACGACCG | -2.97 ± 0.35 | -0.999 ± 0.26 |
| CGGUAGCAAUAUUACGCUAC | -2.96 ± 0.47 | -2.93 ± 0.43 |
| UUCGAGCAAUAUUACGUCAU | -2.56 ± 0.21 | -3.46 ± 0.46 |
| CCGAAGCAAUAUUACGUUUG | -4.44 ± 0.22 | -0.979 ± 0.1 |
| GUCUAGCAAUAUUACGUGCG | -1.76 ± 0.11 | -1.27 ± 0.12 |
| GAUGAGCAAUAUUACGAGUC | -4.11 ± 0.33 | -2.21 ± 0.19 |
| AGUGAGCAAUAUUACGGCAG | -3.28 ± 0.28 | -1.43 ± 0.24 |
| UGAUAGCAAUAUUACGCCAG | -1.59 ± 0.23 | -0.994 ± 0.49 |
| GUAUAGCAAUAUUACGGAUC | -0.654 ± 0.14 | -0.016 ± 0.17 |
| CUGUAGCAAUAUUACGCCGG | -2.3 ± 0.2 | -0.642 ± 0.19 |
| AUAGAGCAAUAUUACGCAGA | -2.57 ± 0.21 | -1.84 ± 0.16 |
| AUAGAGCAAUAUUACGCUAA | -1.33 ± 0.13 | -0.315 ± 0.18 |
| GAGUAGCAAUAUUACGCUAA | -1.92 ± 0.15 | -1.97 ± 0.2 |
| AACAAGCAAUAUUACGUCGG | -2.99 ± 0.14 | -1.99 ± 0.15 |

| Sequence | self-splicing fitness (ln) (30 °C) | self-splicing fitness (ln) (37 °C) |
| --- | --- | --- |
| GCCAAGCAAUAUUACGUAAG | -1.37 ± 0.11 | -0.513 ± 0.13 |
| UUUCAGCAAUAUUACGCACA | -0.372 ± 0.12 | 0.127 ± 0.15 |
| CAAGAGCAAUAUUACGUGGG | -3.54 ± 0.21 | -2.64 ± 0.19 |
| CCACAGCAAUAUUACGUCAC | -3.34 ± 0.15 | -2.86 ± 0.22 |
| UAGGAGCAAUAUUACGUUGA | -2.46 ± 0.18 | -1.19 ± 0.17 |
| UAGAAGCAAUAUUACGCCGG | -0.817 ± 0.12 | -0.196 ± 0.18 |
| GGAGAGCAAUAUUACGGUGU | -3.55 ± 0.28 | -2.38 ± 0.18 |
| AAUAAGCAAUAUUACGUACA | -0.815 ± 0.1 | -0.842 ± 0.11 |
| UUGGAGCAAUAUUACGGUAG | -3.58 ± 0.2 | -1.99 ± 0.18 |
| CUCCAGCAAUAUUACGAAUA | -3.91 ± 0.47 | -2.54 ± 0.28 |
| ACAUAGCAAUAUUACGGCCC | -1.29 ± 0.14 | -0.169 ± 0.23 |
| UCCUAGCAAUAUUACGUCAC | -1.97 ± 0.2 | -2.6 ± 0.27 |
| UGACAGCAAUAUUACGAUAU | -2.67 ± 0.16 | -1.9 ± 0.14 |
| GGGAAGCAAUAUUACGUGUG | -1.15 ± 0.097 | -1.24 ± 0.13 |
| UCGAAGCAAUAUUACGAACG | -1.82 ± 0.13 | -0.935 ± 0.14 |
| ACUCAGCAAUAUUACGCCCU | -0.136 ± 0.15 | 0.51 ± 0.17 |
| UAGCAGCAAUAUUACGGCGA | -0.238 ± 0.077 | 0.939 ± 0.1 |
| GCACAGCAAUAUUACGCUGC | -4.12 ± 0.37 | -2.1 ± 0.3 |
| GACUAGCAAUAUUACGCAAG | -4.58 ± 0.36 | -1.6 ± 0.15 |
| CUCUAGCAAUAUUACGAGAG | -2.9 ± 0.18 | -1.69 ± 0.2 |
| UAAUAGCAAUAUUACGUACA | -1.05 ± 0.11 | -0.0465 ± 0.13 |
| CCUCAGCAAUAUUACGACUC | -3.68 ± 0.43 | – |
| GCUUAGCAAUAUUACGCUUC | -3.27 ± 0.47 | -1.54 ± 0.29 |
| UUUAAGCAAUAUUACGUAGC | – | -2.34 ± 0.36 |
| AACGAGCAAUAUUACGAUGC | -2.93 ± 0.2 | -1.52 ± 0.26 |

From the supplement of paper PMC7877785
